Source: patent US20230303667A1
Values joined by “and” are separate entries in the source; they are usually repeats but may differ in a detail not shown here. Identical values can stand only once.

Target: Ebola virus Full length GP (Ebola virus (strain not stated))
Assay: ELISA on Full length GP

13F6 (antibody)
EC50: 0.004 µg/mL and 0.0027 nM
